Measured values taken from article PMC10952681.

Target: Rhizobium radiobacter MDC 8606 N-carbamoyl-β-alanine amidohydrolase (Rhizobium radiobacter MDC 8606)
Experiment: SEC; Superdex S200 16/60, 50 mM Tris-HCl pH 8.0, 150 mM NaCl; calibrated column; single major peak at 74.4 mL, apparent molecular weight 90 kDa

Substance “Rhizobium radiobacter MDC 8606 N-carbamoyl-β-alanine amidohydrolase (enzyme)” has a stoichiometry N of 2.
